Consider five substances from patent US9447158B2.

For this assay, the target named is MAPKAP Kinase II (MK2).
As to KALNRQdLGVAA (peptide), the % of … [SEQ ID NO: 124] Reaction Velocity at an Inhibitor Concentration of 100 µM was determined as 357%.
Next, KALNRQLGdVAA (peptide): 260%; KALNdRQLGVAA (peptide): 306%; KALdNRQLGVAA (peptide): 95%.
With KALNRdQLGVAA (peptide), the % of … [SEQ ID NO: 124] Reaction Velocity at an Inhibitor Concentration of 100 µM was 276%.
